Test results as given in PMC7658645, “Aptamer-Based Western Blot for Selective Protein Recognition”.

B1: 3.13 (ssDNA)
DNA: GAGTGTGGTTCCCGGGAGGGCGCCTACGGGTCCCGTATTCGGATTTGTGC
B2: G1 (ssDNA)
DNA: ATACGACTCACTATTAGGGACAAAGCTGACAACCCTTTCATAATCTAACTACATTTATGTGCTAGACTACTGACTAC

Tests used:
histone H4 = histone H4 (UniProt P62805 2-103); test: aptamer blot; on nitrocellulose; all four histone types labeled without selectivity; Dot blot/aptamer blot: 20 mM Tris-HCl, 100 mM NaCl, 5 mM MgCl2, 0.1% BSA (pH not given), 50 nM aptamer in dot blot (membranes equilibrated at 4 C), blots 1 h af
Maltose-binding protein = Maltose-binding protein (Escherichia coli (strain K12), UniProt P0AEX9 27-396); test: Western blot, SDS-denatured protein on nitrocellulose; settings: label: 5'-Cy5.5

| Binder | binding result (histone H4) | binding result (Maltose-binding protein) |
| --- | --- | --- |
| B1 | binds |  |
| B2 |  | no binding |
